Patent publication US20100303887A1, “DHA and PEDF, a Therapeutic Composition for Nerve and Retinal Pigment Epithelial Cells” (priority 2007, published 2010)

How the values were obtained:
[1] = system: NPD1 synthesis; assay: NPD1 synthesis and release from polarized primary human RPE cell monolayers (lipidomic analysis); type: cell-based; settings: 72 hr
Procedure: Human RPE cells. Cultures of retinal pigment epithelial (RPE) cells were prepared. RPE cells were seeded onto Millicell-HA culture plate inserts (Millipore, Bradford, Mass.), placed in 24-well plates, and allowed to reach confluence. Consent for use of tissue for research was obtained in compliance with Federal and State law and institutional regulations. Cultures were maintained in Chee's essential replacement medium until the experiments were performed as described in J. Hu and D. Bok (2001) Mol Vis 7:14-19. The medium includes Eagle's minimal essential medium with calcium (MEM, Irvine Scientific, Irvine, Calif.), 1% heat-inactivated calf serum (JRH Bioscience, Lennexo, Kans.), amino acid supplements, and 1% bovine retinal extract. The Millicell-HA filter inserts allow separate manipulation of the culture media bathing the apical and basal surfaces of the RPE monolayer and measurement of the transepithelial resistance (TER), which provides a measure of cell differentiation and confluency. Cultures were used for experiments once they developed a TER of at least 400 Ω·cm^2, as measured by an Epithelial Volt-ohmmeter (EVOM, World Precision Instruments, New Haven, Conn.).
Exposure of RPE cells to growth factors. […] […] The lower chamber was filled with 500 μl media (bathing the basal cell monolayer surface) containing 0.1% HSA. Cells were incubated for 72 hours, then apical and basal media were removed and collected for analysis. After allowing the cells to rest for at least 72 hours on fresh media, the experiments were repeated.
Lipidomic analysis. Human RPE primary cell cultures or ARPE-19 cells were separated from culture media and washed with 1 ml PBS. After addition of 1 ml methanol, cells were scraped from plates or millicell membranes and collected for lipid extraction. Media was spun-down to separate cell debris, then 350 μl were collected in 1 ml of cold chloroform:methanol (1:1). Protein precipitates were then separated by centrifugation at 1500×g (5 min, 4° C.). Lipid extracts were collected, and kept under nitrogen at −80° C. until solid-phase purification; extracts were pre-equilibrated at pH 3.0 in 10% methanol/water, then loaded to 500 mg C18 columns (Varian, Inc., Palo Alto, Calif.), and eluted with 1% methanol/ethyl acetate. Eluates were concentrated on a N2 stream evaporator. Samples were loaded to a liquid chromatograph-tandem mass spectrometer (LC-TSQ Quantum, Thermo-Finnigan; Thermo Fisher Scientific, Waltham, Mass.) installed with a Biobasic-AX column (Thermo-Hypersil-Keystone, Thermo Fisher Scientific, Waltham, Mass.) (100 mm\2.1 mm, 5-μm particle sizes), and eluted in a linear gradient [100% solution A (40:60:0.01 methanol/water/acetic acid pH 4.5) to 100% solution B (99.99:0.01 methanol/acetic acid)], at a flow rate of 300 μl/min for 30 minutes. LC effluents were diverted to an electro-spray-ionization probe (ESI) on a TSQ Quantum (Thermo-Finnigan, Thermo Fisher Scientific, Waltham, Mass.) triple quadrupole mass spectrometer. NPD1 and resolving D1 were obtained by biogenic synthesis as described in N. G. Bazan, D. L. Birkle, and T. S. Reddy (1984) Biochem Biophys Res Commun. 125:741-74, and V. L. Marcheselli et al. (2003) J. Biol. Chem. 278:43807-43817. Erratum in: (2003) J Biol Chem 278:51974. Other lipid standards (Cayman Chem. Ann Arbor, Mich.) were used for tuning and optimization and to create calibration curves. The instrument was set on full-scan mode, to detect parent ions, and selected reaction mode (SRM) for quantitative analysis, to detect product ions, simultaneously. The selected parent/product ions (m/z) and collision energy (v) obtained by running on negative ion detection mode were: 359.2/153.1/20 for NPD1, 343.2/281.2/18 for resolving D1, 351.2/195.0/22 for 20HO-LTB4 (used as internal standard), 327.2/283.3/16 for DHA, 311.3/267.3/20 Arachidonic Acid-d8 (used as internal standard, IS).
Neurotrophins activated NPD1 synthesis in cultured primary human RPE cells. […]

[2] = system: NPD1 synthesis; assay: NPD1 synthesis in cultured ARPE-19 cells (lipidomic analysis); type: cell-based, human; settings: serum starvation/H2O2/TNFα oxidative stress for the combination
Procedure: (§1) Exposure of ARPE-19 cells to growth factors. Cells at 75-80% confluence (72 hr growth in DMEM/F12+10% FBS) were serum-starved for 2 hr before exposure to growth factors. The serum-starved cells were treated with TNF-α (Sigma-Aldrich Corporation, St. Louis, Mo.) (10 ng/ml) and H2O2 (600 μM) to induce oxidative stress and challenged with increasing concentrations (10, 30, 50 nM) and PEDF (Chemicon International, Temecula, Calif.) (50 ng/ml) simultaneously with oxidative stress for 4 hr before harvesting for protein analysis. Cell extracts were made and protein concentrations were adjusted by Bio-Rad protein reagent and used for Western-blot analysis. To study neuroprotection by DHA and PEDF in the oxidative stress-induced ARPE-19 cells, 72 hr cells were serum-starved for 8 hr before the introduction of oxidative stress and challenged with DHA and PEDF for 15 hr. Cells were analyzed to detect Hoechst-positive apoptotic cells.
Lipidomic analysis. Human RPE primary cell cultures or ARPE-19 cells were separated from culture media and washed with 1 ml PBS. After addition of 1 ml methanol, cells were scraped from plates or millicell membranes and collected for lipid extraction. […] The instrument was set on full-scan mode, to detect parent ions, and selected reaction mode (SRM) for quantitative analysis, to detect product ions, simultaneously. […]

[3] = system: Bcl-2 and Bfl-1; assay: Anti-apoptotic protein expression in ARPE-19 cells under serum starvation/H2O2/TNFα oxidative stress (Western blot); type: cell-based, human; settings: DHA 10 to 50 nM, with or without PEDF
Procedure: as §1, with “To study neuroprotection by DHA and PEDF in the oxidative stress-induced ARPE-19 cells, 72 hr cells were serum-starved for 8 hr before the introduction of oxidative stress and challenged with DHA and PEDF for 15 hr.” left out
(§2) Analysis of Bcl-2 and caspase-3 cleavage. Bcl-2 protein and caspase-3 cleavage were analyzed by Western-blot analysis. […] The membranes were probed with primary antibodies against Bcl-2 (Santa Cruz Biotechnology, Inc., Santa Cruz, Calif.) and cleaved caspase-3 (Asp-175) (Cell Signaling) at room temperature and treated for 20 minutes with the secondary antibody, goat anti-rabbit IgG: horseradish peroxidase, and horseradish peroxidase-conjugated anti-biotin antibody, then proteins were detected by using an ECL kit (Amersham Biosciences, Buckinghamshire, United Kingdom). […]

[4] = system: Bid, Bax, and Bad; assay: Pro-apoptotic protein expression in ARPE-19 cells under serum starvation/H2O2/TNFα oxidative stress (Western blot); type: cell-based, human; settings: DHA 10 to 50 nM, with or without PEDF
Procedure: as §1, with “To study neuroprotection by DHA and PEDF in the oxidative stress-induced ARPE-19 cells, 72 hr cells were serum-starved for 8 hr before the introduction of oxidative stress and challenged with DHA and PEDF for 15 hr.” left out
as §2

B1: PEDF: pigment epithelium-derived factor, a member of the serine protease inhibitor (serpin) family (protein, UniProt P36955 20-418, looked up)
Pigment epithelium-derived …: QNPASPPEEGSPDPDSTGALVEEEDPFFKVPVNKLAAAVSNFGYDLYRVRSSTSPTTNVLLSPLSVATALSALSLGAEQRTESIIHRALYYDLISSPDIHGTYKELLDTVTAPQKNLKSASRIVFEKKLRIKSSFVAPLEKSYGTRPRVLTGNPRLDLQEINNWVQAQMKGKLARSTKEIPDEISILLLGVAHFKGQWVTKFDSRKTSLEDFYLDEERTVRVPMMSDPKAVLRYGLDSDLSCKIAQLPLTGSMSIIFFLPLKVTQNLTLIEESLTSEFIHDIDRELKTVQAVLTVPKLKLSYEGEVTKSLQEMKLQSLFDSPDFSKITGKPIKLTQVEHRAGFEWNEDGAGTTPSPGLQPAHLTFPLDYHLNQPFIFVLRDTDTGALLFIGKILDPRGP
[1]; growth factors 20 ng/ml added to apical medium
  NPD1 synthesis and release through the apical surface: by far the most potent stimulator of NPD1 synthesis
[1]; increasing concentrations
  NPD1 release, neurotrophin added to the apical medium: concentration-dependent increases in NPD1 release only on the apical side
  NPD1 release, neurotrophin added to the basal medium: much less NPD1 release on the apical side
[2]
  NPD1 synthesis in ARPE-19 cells: up-regulate NPD1 synthesis
[3]
  Bcl-2 and Bfl-1 anti-apoptotic protein expression: unable to alter the expression of pro- and anti-apoptotic proteins
[4]
  Bid, Bax and Bad pro-apoptotic protein expression: unable to alter the expression of pro- and anti-apoptotic proteins
